B1: SR2 (VHH)
VHH: EVQLVESGGGLVQAGDSLRLSCAASGAFGSNVFMGWFRQAPGKEREFVASITPHHTVTDYADSVRGRFSISADSAKNTVYLQMNSLKPEDTAVYYCAAAIYRNASVLDYWGQGTQVTVSS
notes: not shown: 6xHis, C-terminal, kept
B2: SR1 (VHH)
VHH: EVQLVESGGGLVQAGDSLRLSCAASGKTGRSVIMGWFRQAPDKEREFVATITRGDDTTNYADSVKGRFTISRDDARNTVYLQMNSLKPEDTAVYYCAAVYFVNDCIVDYWGQGTQVTVSS
notes: as for B1
B3: SR6c3 (VHH)
VHH: EVQLVESGGGLVQAGDSLRLSCAASGDCHVLWRMGWFRQAPGKEREFVAAISLDGQFTNYADSVRGRFSISADSAKNTVYLQMNSLKPEDTAVYYCAALPFLDYWGQGTQVTVSS
notes: as for B1
B4: SR6v9 (VHH)
VHH: EVQLVESGGGLVQAGDSLRLSCAASGDSHVLWRMGWFRQAPGKEREFVAAISLDGQFTNYADSVRGRFSISADSAKYTVYLQMNSLKPEDTAVYYCAALPFLDYWGQGTQVTVSS
notes: as for B1
B5: SR6v7 (VHH)
VHH: EVQLVESGGGLVQAGDSLRLSCAASGDSYILWRMGWFRQAPGKEREFVAAISLDGQFTNYADSVRGRFSISADSAKNTVYLQMNSLKPEDTAVYYCAALPFLDYWGQGTQVTVSS
notes: as for B1
B6: SR6v1 (VHH)
VHH: EVQLVESGGGLVQAGDSLRLSCAASGDSHVLWRMGWFRQAPGKEREFVAAISLDGQFTNYADSVRGRFSISADSAKNTVYLQMNSLKPEDTAVYYCAALPFLDYWGQGTQVTVSS
notes: as for B1
B7: SR12c3 (VHH)
VHH: EVQLVESGGGLVQAGDSLRLSCAASGAIVHVFAMGWFRQAPGKEREFVASINLDNDVTNYADSVKGRFTISRDDARNTVYLQMNSLKPEDTAVYYCNATIFTDSGLGDYWGQGTQVTVSS
notes: as for B1
B8: SR12 (VHH)
VHH: EVQLVESGGGLVQAGDSLRLSCAASGAIVHVFAMGWFRQAPGKEREFVASINLDNDATNYADSVKGRFTISRDDARNTVYLQMNSLKPEDTAVYYCNATIFMDSDLGDYWGQGTQVTVSS
notes: as for B1

The target of this experiment is T1, SARS-CoV-2 spike RBD with C-terminal 3xFlag tag and N-terminal signal peptide of the spike (RBD-3xFlag) (SARS-CoV-2, Wuhan-Hu-1 type (wild type), UniProt P0DTC2).
T1 construct: also called RBD-3×Flag; wild-type RBD; not shown: 3xFlag, C-terminal, kept
Nature of the experiment: ELISA. The settings on record: one partner purified.
As to B1, the binding result is “binds”.
The value for B2 was “binds”; that for B3 was “binds”; that for B4 was “binds”.
For the molecule B5, the binding result was “binds”.
The value for B6 was “binds”; that for B7 was “binds”.
As for B8, the binding result was “binds”.
